Measured values taken from US20240002531A1 (ONO PHARMACEUTICAL, published 2024).
Where a chain is given by its changes, count along the chain named. Like-named read-outs stand apart in the source and are kept apart here. Each block holds one binder with its values, some of them ahead of it.

Key:
Experiment in all cases: peptide ELISA, OD 655 nm
[1] = biological target: T1, K605A peptide (HER2 603-622 with K605A) (human)
T1 peptide: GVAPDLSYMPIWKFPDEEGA

[2] = biological target: T2, HER2_604-622C peptide (NH2-VKPDLSYMPIWKFPDEEGAC-COOH) (human)
T2 construct: KLH was added for immunisation, the peptide itself was coated in the screening ELISA
T2 peptide: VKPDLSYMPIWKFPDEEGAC

[3] = biological target: T3, D618A peptide (HER2 603-622 with D618A) (human)
T3 peptide: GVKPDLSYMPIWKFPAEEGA

[4] = biological target: T4, V604A peptide (HER2 603-622 with V604A) (human)
T4 peptide: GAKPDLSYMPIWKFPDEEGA

[5] = biological target: T5, W614A peptide (HER2 603-622 with W614A) (human)
T5 peptide: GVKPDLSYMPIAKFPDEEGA

[6] = biological target: T6, D607A peptide (HER2 603-622 with D607A) (human)
T6 peptide: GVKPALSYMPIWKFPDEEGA

[7] = biological target: T7, I613A peptide (HER2 603-622 with I613A) (human)
T7 construct: also called 1613A
T7 peptide: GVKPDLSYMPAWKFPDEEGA

[8] = biological target: T8, P606A peptide (HER2 603-622 with P606A) (human)
T8 peptide: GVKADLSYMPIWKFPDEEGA

[9] = biological target: T9, L608A peptide (HER2 603-622 with L608A) (human)
T9 peptide: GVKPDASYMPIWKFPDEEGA

[10] = biological target: T10, G603A peptide (HER2 603-622 with G603A) (human)
T10 peptide: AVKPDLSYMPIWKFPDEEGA

[11] = biological target: T11, F616A peptide (HER2 603-622 with F616A) (human)
T11 peptide: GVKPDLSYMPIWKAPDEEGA

[12] = biological target: T12, P617A peptide (HER2 603-622 with P617A) (human)
T12 peptide: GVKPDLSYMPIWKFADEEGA

[13] = biological target: T13, K615A peptide (HER2 603-622 with K615A) (human)
T13 peptide: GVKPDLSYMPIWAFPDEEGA

[14] = biological target: T14, E620A peptide (HER2 603-622 with E620A) (human)
T14 peptide: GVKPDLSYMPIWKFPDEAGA

[15] = biological target: T15, M611A peptide (HER2 603-622 with M611A) (human)
T15 peptide: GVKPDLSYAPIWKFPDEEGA

[16] = biological target: T16, Y610A peptide (HER2 603-622 with Y610A) (human)
T16 peptide: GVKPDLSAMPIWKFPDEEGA

[17] = biological target: T17, HER2 peptide p603-622 (amino acids 603 to 622 of human HER2) (human)
T17 construct: Synthetic peptide; also called wild-type HER2 peptide
T17 peptide: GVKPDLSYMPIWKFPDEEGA

[18] = biological target: T18, P612A peptide (HER2 603-622 with P612A) (human)
T18 peptide: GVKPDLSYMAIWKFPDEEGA

[19] = biological target: T19, S609A peptide (HER2 603-622 with S609A) (human)
T19 peptide: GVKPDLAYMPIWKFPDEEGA

[20] = biological target: T20, G621A peptide (HER2 603-622 with G621A) (human)
T20 peptide: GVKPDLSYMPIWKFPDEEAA

[21] = biological target: T21, E619A peptide (HER2 603-622 with E619A) (human)
T21 peptide: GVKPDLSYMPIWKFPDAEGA

[22] = biological target: T5, W614A peptide (HER2 603-622 with W614A)
[23] = biological target: T11, F616A peptide (HER2 603-622 with F616A)

- binding result [1]: binds
- binding result [2]: binds
- binding result [3]: binds
- binding result [4]: binds
- binding result [5]: no binding (tested: 10 ug/ml)
- binding result [6]: binds
- binding result [7]: binds
- binding result [8]: binds
- binding result [9]: binds
- binding result [10]: binds
- binding result [11]: binds
- binding result [12]: binds
- binding result [13]: binds
- binding result [14]: binds
- binding result [15]: binds
- binding result [16]: binds
- binding result [17]: binds
- binding result [18]: binds
- binding result [19]: binds
- binding result [20]: binds
- binding result [21]: binds
B1: H2Mab-294 antibody (antibody, mouse IgG1, kappa, V domains shown)
VH: EVQLVESGGGLVQPGGSLKLSCAASGFTFSSYGMSWVRQTPDKRLELVATINSNGGGTYYPDSVKGRFTISRDNAKNTLYLQMSSLKSEDTAIYYCASPGSWFPYWGQGTLVTVSA
VL: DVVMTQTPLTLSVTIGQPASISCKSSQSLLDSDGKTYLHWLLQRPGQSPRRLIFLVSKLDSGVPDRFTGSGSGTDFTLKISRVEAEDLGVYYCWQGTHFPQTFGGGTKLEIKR

- binding result [1]: binds
- binding result [2]: binds
- binding result [3]: binds
- binding result [4]: binds
- binding result [5]: binds
- binding result [6]: binds
- binding result [7]: binds
- binding result [8]: binds
- binding result [9]: binds
- binding result [10]: binds
- binding result [11]: binds
- binding result [12]: binds
- binding result [13]: binds
- binding result [14]: binds
- binding result [15]: binds
- binding result [16]: binds
- binding result [17]: binds
- binding result [18]: binds
- binding result [19]: binds
- binding result [20]: binds
- binding result [21]: binds
B2: H2Mab-295 antibody (antibody, mouse IgG1, kappa, V domains shown)
VH: EVQLQQSGPELVKPGASRKISCKASGYSFTGYTMNWVKKSHGKNLEWIGLINPYNGGTRYNQKFKGKATLTVDKSSSTAYMELLSLTSEDSAVYYCVKEPSDYWGQGTTLTVSS
VL: DVVMTQTPLSLPVSLGDQASISCRSSQSLVHSNGNTYLHWYLQKPGQSPKLLIYKVSKRFSGVPDRFSGCGSGTDFTLKISRLEAEDLGVYFCSQSSHVPPTFGGGTKLEIKR

- binding result [22]: no binding (tested: 10 ug/ml)
- binding result [23]: no binding (tested: 10 ug/ml)
B3: H2Mab-286 antibody (antibody, mouse IgG1, kappa, V domains shown)
VH: DVQLQESGPGLVKPSQSLSLTCTVTGYSITSDYGWNWIRQFPGNKLEWMGYIRYSGITSYNPSLKSRISITRDTSKNQFFLQLNSVTTEDTATYYCTREVLSWGQGTTLTVSS
VL: B2 VL with Y41F, K58N, D65A, C70S, L83V, S97T

- binding result [1]: binds
- binding result [2]: binds
- binding result [3]: binds
- binding result [4]: binds
- binding result [5]: binds
- binding result [6]: binds
- binding result [7]: binds
- binding result [8]: binds
- binding result [9]: binds
- binding result [10]: binds
- binding result [11]: binds
- binding result [12]: binds
- binding result [13]: binds
- binding result [14]: binds
- binding result [15]: binds
- binding result [16]: binds
- binding result [17]: binds
- binding result [18]: binds
- binding result [19]: binds
- binding result [20]: binds
- binding result [21]: binds
B4: H2Mab-298 antibody (antibody, mouse IgG1, kappa, V domains shown)
VH: DVKLVESGGGLVKPGGSLKLSCAASGFTFSRYSMSWVRQTPEKKLEWVAIISTGGSYMFYPDSAKGRFTISRDDAKNTLYLQMSSLKSEDTAMYYCTREAGDYWGQGTTLTVSS
VL: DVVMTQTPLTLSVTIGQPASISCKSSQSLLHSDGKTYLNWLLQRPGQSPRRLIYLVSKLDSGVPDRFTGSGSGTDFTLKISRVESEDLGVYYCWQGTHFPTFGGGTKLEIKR

- binding result [1]: binds
- binding result [2]: binds
- binding result [3]: binds
- binding result [4]: binds
- binding result [5]: binds
- binding result [6]: binds
- binding result [7]: binds
- binding result [8]: binds
- binding result [9]: binds
- binding result [10]: binds
- binding result [11]: no binding (tested: 10 ug/ml)
- binding result [12]: binds
- binding result [14]: binds
- binding result [15]: binds
- binding result [16]: binds
- binding result [17]: binds
- binding result [18]: binds
- binding result [19]: binds
- binding result [20]: binds
- binding result [21]: binds
B5: H2Mab-296 antibody (antibody, mouse IgG1, kappa, V domains shown)
VH: QVTLKESGPGILQPSQTLSLTCSFSGFSLSTSGMGVGWIRQPSGKGLEWLAHIWWDDDKRYNPALKSRLTISKDTSSNQVFLKIANVDTSDTATYYCSRIEGQRGFAYWGQGTLVTVSA
VL: DIVMSQSPSSLAVSVGEMITMTCKSSQSLLYSRNQKNYLAWYQQKPGQSPKLLIYWASTRESGVPDRFTGSGSGTDFTLTISSVKAEDLAVYYCQQYYSQPYTFGGGTKLEIKR

- binding result [1]: binds
- binding result [2]: binds
- binding result [3]: binds
- binding result [4]: binds
- binding result [5]: binds
- binding result [6]: binds
- binding result [7]: binds
- binding result [8]: binds
- binding result [9]: binds
- binding result [10]: binds
- binding result [11]: binds
- binding result [12]: binds
- binding result [13]: binds
- binding result [14]: binds
- binding result [15]: binds
- binding result [16]: binds
- binding result [17]: binds
- binding result [18]: binds
- binding result [19]: binds
- binding result [20]: binds
- binding result [21]: binds
B6: H2Mab-293 antibody (antibody, mouse IgG3, V domains shown)
VH: EVQLVESGGGLVQPGGSLKLSCAASGFTFSNYGIFWVRQTPDKRLELVATVKSNGGSTYYPDSVKGRFTISRDNAKKTLYLQMSSLKSEDTAMYYCAREGGDYWGQGTSVTVSS
VL: DIVMTQSHKFMSTSVGDRVSITCKASQDVGTAVAWYQQKPGQSPKLLIYWTSTRHIGVPDRFTGSGSGTDFTLTIRNVQSEDLANYFCQQYSKNPLTFGAGTKLELKR
